In a protein production outcome set (Wang et al. 2014):

Assay: label from the status in PepcDB records

Question: For “MAGRRRRPTTDRTIGGLSFSQRELRDLLVAWLALGLAFTFFLEREFRRIVFGQFGGLSGAEIASTFAVSLLTVGVGFLLHELAHKVVAVRFGQIAAFKADYRMLGFAVLGGLVGFLFAAPGAVVHRGRLTAKQHGLIAVAGPVTNLALAVVFLVPFFLTASMGIGGFLRELTEMGLQINLLLAGFNMLPFGPLDGRTVREWSTPVFLAVAVPSILLGVGALFVL”, which protein production is on record?
Answer: The protein production was “failed”.

Question: Which protein production does the source give for “MNENAPTHKSSHKVKTHTPVSGYHIEDLRTYPTEKLLEIANKLKVENPQEFKRQDLMFEILKTQVTQGGYILFTGILEIMPDGYGFLRGFDGSFSDGHNDTYVSPSQIRRFALRNGDIVTGQVRSPKDQEKYYALLKIEAINYSPSDEIRNRPLFDNLTPLFPDEQIKLEYEPTKVTGRMLDLFSPVGKGQRALIVAPPRTGKTELMKELAQGITSNHPEVELIILLVDERPEEVTDMQRSVKGQVFSSTFDLPANNHIRIAELVLERAKRRVEMGKDVVVLLDSITRLARAYNAVTPSSGKVLSGGVDANALHRPKRFFGAARNIEEGGSLTIIATALIETGSRMDEVIFEEFKGTGNSEIVLARNIADRRIYPAFDILKSGTRKDNILLGKDRLTKVWVLRNVMQQMDDIEALSFVYSKMQQTKDNEEFLNLMNEK” here?
Answer: The protein production was “failed”.

Question: Which protein production does the source give for “SFEIGCELEAQRELRAKQTLVGQVIDEDLMSIVYQPVWDIEAMQPLGFECLARFSPLPLRSPDKWFADAAEVGMGVELELHAIRKALQAIGRFPAPIDLSVNASAATILGGDLARLFDGVPLDRLIVEITEHSSVGNYDAILDVLRPLRQRGLRLAVDDAGAGYSSLHHILNMQPDFIKLDIGLTQNIDLDPARKALARALVGFARDTGSRIVAEGVERQSELDALRSIGVKKVQGYLLGRP” here?
Answer: The protein production was “failed”.

Question: Which protein production does the source give for “MLKYSMHLNIILLEASLELVPKEIVNHPAVIKNAKRRNKKPEDTLLDISLHYHAMKYLENSHKRGRPDILHQALLVILTDPVIKGDIFIHTIQSKIIKVNPNMRPPKNYLRFIGLMEQLLKYGKIPINGDETLMEVTNLTLDNIVNRYDLILLSEKGEKINPEEICKLDEKWLLGIGAFPHGDFSDKILNLAKKIYSISGFPLETQQVLCRIFSACNSILGWPLEHHHHHH” here?
Answer: Its protein production is “failed”.

Question: Which protein production does the source give for “MEYIKPHKGFSTLIILGITLGIDLIFSLLSTFINTYIVLRILEIFIVFFNIYQLYYILKSLTLKYCYDNENFYVLWCFGIRRVTIPFKEIEAYNVSHGEIKGVKLWGYGRNFFALGTFSVNDIGIVNMFVTATKNVIYIKCNSSIYGISPEKCDEVKNFLEKRKLVLKNWTYEKRNKVSLSKDRHFDILIFLISIVILMVTIIPFILYLRGVMPHKMPLSFDSNFKPMIYGTSREFAFKHMMYGAYNMIIFFCIYYSAYFYARYSKKLAYRLMYISFLVAFIFLIFQFKIYVTYIH” here?
Answer: The protein production was “failed”.

Question: Which protein production does the source give for “MQKTLTSAIDIPEQMQNDWQNMLDILSNVINVPAALIMRIYDNDIKVFSSSSSTENPYIKGATEKLNQGLYCETVIEERQELTVFNALVDPEWRSNPDLKQNMIAYCGLPLYWPDNTPFGTLCILDKKENHFSPTYQKLMKTYQHSIEAQLNTLYQHADLLNRHQELQAEVARTTQHLNEINIKLSNEIDCRRAAEQKVEYHKNHDVNTGFLNPIAIHKHVDSLIKSETKFVLLHIHFANSRKIQQEYGYQAFDSLLIEYRSKLTKITDTSVTGRLGSSDILLIIQTDKEKLPQLCQHLSEIGQANYTANEQSLHLQTYVGAVHSKEGISRSDLLQFAYDTVVKCQSLGKTFTIADVSLPTQSSLSEHKIERYLLEAVRNHDLFLNYQPKVCPVNKKWIGCEALLRWNHPHLGAIANDVLIQLAERNGLIYELGNFALRNAIQQASEWILHSPNFVMAVNISAVQLKDPHFVTHIKQLLSLYQLPSKNLELEVTESGLISDEPLAITTLSQLNNMGISIALDDFGTGYASFQYLKKYPFSSLKIDKSFIANIEQNEDDQNIVCAMINIAKKLQLKVVVEGVENQNQEAFVVKEGIDLIQGYLYSKPISATDFEEGLFNQSSIGTPYFHFV” here?
Answer: Its protein production is “failed”.

Question: Which protein production does the source give for “PSHSLQAPEVRFSKEMECLQAMGFVNYNANLQALIATDGDTNAAIYKLKSSQGF” here?
Answer: The protein production was “not failed”.

Question: Which protein production does the source give for “MGSKPSSLADEVAIIVEQVDKVMGMVFWCPLYWESIELLAKDEVSRAIFYGLTEGCKLDYLKYKTKASMVPEMTRFYS” here?
Answer: Its protein production is “not failed”.

Question: Which protein production does the source give for “MFLLEPKQSSNPMQPQETAARYDTIAQWWQTQHQDSQYGLRQLERAIQFVDPTHQPKLALEVGCGSSGRFIECLSNRGFQVEGLDISTAMIDLAQQLHPEVTFYRADICEWIPSKSYSLIVAWDSTFHLPLDQQAPVHRKLCAALEDQGILMFTCGGGDQAGEIAGVFQGQDFEYSTLGIDAFLKLLSDCHCTCLHLEYDQYPERHVYVIAKKVGAAIH” here?
Answer: Its protein production is “failed”.

Question: For “MTSRPSSDQTWQPIDGRVALIAPASAIATDVLEATLRQLEVHGVDYHLGRHVEARYRYLAGTVEQRLEDLHNAFDMPDITAVWCLRGGYGCGQLLPGLDWGRLQAASPRPLIGFSDISVLLSAFHRHGLPAIHGPVATGLGLSPLSAPREQQERLASLASVSRLLAGIDHELPVQHLGGHKQRVEGALIGGNLTALACMAGTLGGLHAPAGSILVLEDVGEPYYRLERSLWQLLESIDARQLGAICLGSFTDCPRKEVAHSLERIFGEYAAAIEVPLYHHLPSGHGAQNRAWPYGKTAVLEGNRLRW”, which protein production is on record?
Answer: Its protein production is “not failed”.

Question: With “MKLIVVTTPTFFVEEDKIITALFEEGLDILHLRKPETPAMYSERLLTLIPEKYHRRIVTHEHFYLKEEFNLMGIHLNARNPSEPHDYAGHVSCSCHSVEEVKNRKHFYDYVFMSPIYDSISKVNYYSTYTAEELREAQKAKIIDSKVMALGGINEDNLLEIKDFGFGGAVVLGDLWNKFDACLDQNYLAVIEHFKKLKKLADLEHHHHHH” as the sequence, how does the protein production read?
Answer: The protein production was “not failed”.

Question: For “MLKTVHQKAGRHTRPVRAWLKLLWQRIDEDNMTTLAGNLAYVSLLSLVPLIAVVFALFAAFPMFSDVSIQLRHFIFANFMPATGDVIQRYIEQFVANSNKMTAVGACGLIVTALLLMYAIDSALNTIWRSKRTRPKVYSFAVYWMILTLGPLLAGASLAISSYLLSLRWASDLNTVIDNVLRILPLLLSWISFWLLYSIVPTTRVPNRDALVGAFVAALLFEAGKKGFALYITMFPSYQLIYGVLAVIPILFVWVYWTWCIVLLGAEITVTLGEYRKLKQAAEQEEADQP”, which protein production is on record?
Answer: Its protein production is “failed”.

Question: Which protein production does the source give for “MTAEIDIQNSIRLELSRHGHYVFRANVGKVRMPNGRIFDTGLPKGFPDLFGFRGTDGKMFFIEVKNEIGKLRQEQKNFQQAMEITPAIGVARSAEEALKIVEGLEHHHHHH” here?
Answer: Its protein production is “failed”.

Question: Which protein production does the source give for “MSDKLFSIVTISFNQAQFLREAVESVLAQKGGDIEYIVVDPGSTDGSREILAEYRSAIDHLILEADHGPGDGLNKGFARANGRYGYFLNSDDFLLPGAIDIMRTLWQRHKNTDVLLCGAWMVDENRRPQRELRPSPVTLEKLLDGEAKIVQQGMSFRMDLFRKVGGFNVGNRTCWDYELLCDFLAAGAAVTQSEARLAAFRIHSASISGGIGGELATKRYLADLDSVYERLTGQKKKPEQRRRAVRLSKRLGSPSHVLLRMRELLAPWTLELRWQADHERKSRRLEHHHHHH” here?
Answer: Its protein production is “failed”.

Question: For “MSGRYEIRFSGAGGQGLILAGVIMAEAASIYDGKQAVQSQSYGPEARGGASKSEVIISDGPVDYPKATQCDALLALTQEACDKYSADLKEGGVLLVDSDLVTKLPPGNYQTTAFNIINTAKNDVGREIVANIVALGAMVALTGVVSKEAAEKAVLSRVPEAFVELNRKAFQMGFEKALAAKK”, which protein production is on record?
Answer: Its protein production is “failed”.

Question: Which protein production does the source give for “MFFSEARARSRTWEASPSEHRKWVEVFKACDEDHKGYLSREDFKTAVVMLFGYKPSKIEVDSVMSSINPNTSGILLEGFLNIVRKKKEAQRYRNEVRHIFTAFDTYYRGFLTLEDFKKAFRQVAPKLPERTVLEVFREVDRDSDGHVSFRDFEYALNYGQKEA” here?
Answer: The protein production was “failed”.

Question: With “MQHESPIIRRKSTRIYVGDVPIGDGAPIAVQSMTNTRTTDVEATVAQIRALEKVGADIVRVSVPTMEAAEAFKLIKQQVSVPLVADIHFDYRIALKVAEYGVDCLRINPGNIGNEERIRSVVDCARDKNIPIRIGVNGGSLEKDLQMKYGEPTPEALVESAMRHVDHLDRLNFDQFKVSVKASDVFLAVDSYRLLAKKIDQPLHLGITEAGGARAGAVKSAVGLGMLLSEGIGDTLRISLAADPVEEIKVGFDILKSLRIRSRGINFIACPSCSRQEFDVIGTVNALEQRLEDIITPMDVSIIGCVVNGPGEAEVSHLGLAGSNKKSAFYEDGKRQKERFDNNDLVNQLEAKIRAKASMMDSENRIEIKVQD” as the sequence, how does the protein production read?
Answer: The protein production was “failed”.

Question: For “YMVPGLWGAPLKAVSAFAPPMKTQDFNLYTNEVHAKFDDYDLGMEYARQHNKPVMLDFTGYGCVNCRKMELAVWTDPKVSSIINNDYVLITLYVDNKTPLTEPVKIMENGTERTLRTVGDKWSYLQRVKFGANAQPFYVLIDNEGNPLNKSYAYDEDISKYINFLQTGLENYRKEK”, which protein production is on record?
Answer: Its protein production is “failed”.

Question: For “TVHKQDGKVLEIELSSLKEALSFVSLIDGYYRLTADAHHYLCKEVAPPAVLENIHSNCHGPISMDFAISKLKKAGNQTGLYVLRCSPKDFNKYFLTFAVERENVIEYKHCLITKNENGEYNLSGTKRNFSNLKDLLNCYQMETVRSDSIIFQFTKCCPPKPKDKSNLLVFRTNGISDVQISPTLQRHNNVNQMVFHKIRNEDLIFNESLGQGTFTKIFKGVRREVGDYGQLHKTEVLLKVLDKAHRNYSESFFEAASMMSQLSHKHLVLNYGVCVCGEENILVQEFVKFGSLDTYLKKNKNSINILWKLGVAKQLAWAMHFLEEKSLIHGNVCAKNILLIREEDRRTGNPPFIKLSDPGISITVLPKDILQERIPWVPPECIENPKNLNLATDKWSFGTTLWEICSGGDKPLSALDSQRKLQFYEDKHQLPAPKWTELANLINNCMDYEPDFRPAFRAVIRDLNSLFTPDYELLTENDMLPNMRIGALGFSGAFEDRDPTQFEERHLKFLQQLGKGNFGSVEMCRYDPLQDNTGEVVAVKKLQHSTEEHLRDFEREIEILKSLQHDNIVKYKGVCYSAGRRNLRLIMEYLPYGSLRDYLQKHKERIDHKKLLQYTSQICKGMEYLGTKRYIHRDLATRNILVENENRVKIGDFGLTKVLPQDKEYYKVKEPGESPIFWYAPESLTESKFSVASDVWSFGVVLYELFTYIEKSKSPPVEFMRMIGNDKQGQMIVFHLIELLKSNGRLPRPEGCPDEIYVIMTECWNNNVSQRPSFRDLSLRVDQIRDSIAA”, which protein production is on record?
Answer: The protein production was “failed”.

Question: For “MSFSDSESSSHGGGGGDYKFFRQISRDRLLHEMLGSTKTGDSKAWKILIMDRVTVKVMSQSCKMADITDQGISLVEELFKRREPMPGMDAIYFIQPSKENIVMFLSDMSGREPLYRKAFIFFSSTIPKELVNHIKSDSSVLPRIGALREMNMEYFPIDNQGFLTDHEQALETLYAEDAENSRHFHICLNIMATRIATVFASLKELPFVRYRAAKSTASRDLVPSKLAAAIWDCISKYKAIPNFPQTETCELLIVDRSVDQVLRLIYYIYSSSPY”, which protein production is on record?
Answer: Its protein production is “failed”.

Question: Which protein production does the source give for “MAPDASTALAAREKVQQILNAACTGNLEFLKNVAKQLDEGKDLTKTVESIKDANKRGALHFAAREGQTEICRYLLEELKLNADAKDETGDTPLVHAARQGQIETVKYLLEQGADPNIASELGATALHHAAGTGEIELLKELLSRGVPVDSESESGTPLIWAAGHDQKNAVEVLLEHNANPNAETEDNITPLLSAVAAGSLSCLELLVKAGAKANVFAGGATPLHIAADIGNLELINCLLKAGADPNQKDEEGNRPLEVAAARDNRKVVEILFPLTTKPETVSDWTVDGILAHMESNKEQEENSNKAKSQETGIKKDLPVVSPEAKAKAAEAKARGQDAFHRKDFQMAIDAYTQAIDFDPTDHTLFSNRSLCWLRLGQAEHALSDAKACRELNPDWPKGCFREGAALRLLQRFDEAANAFYEGVLLSPESKELIDAFREAVDAGRKFHGKGEVKAKS” here?
Answer: Its protein production is “failed”.
